Measured values as given in patent publication US20160024219A1 (Sanofi, published 2016).
Positions count from the first letter of the chain named. Several values for one entry are separate records, joined by “and”; a condition that tells them apart may be missing. Equal entries are not always repeated.

Tests used:
[1] = target: T1, CD52 peptide #741; assay: BIACORE (SPR), CD52 peptide #741 chip; week 0, reference of the normalization
T1 construct: also called CD52 peptide #741 chip
Procedure: (§1) The proteins (85 μg) were diluted in PBS, pH 7.2, to 0.4 mg/ml, and incubated at 45° C. for 4 weeks. Their binding affinity to CD52 peptide was measured on BIACORE™.

[2] = target: T1, CD52 peptide #741; assay: BIACORE (SPR), CD52 peptide #741 chip; antibody after 2 weeks at 45C, pH 7.2 in PBS
Procedure: as §1

[3] = target: T1, CD52 peptide #741; assay: BIACORE (SPR), CD52 peptide #741 chip; antibody after 4 weeks at 45C, pH 7.2 in PBS
Procedure: as §1

[4] = target: T1, CD52 peptide #741; assay: BIACORE (SPR), CD52 peptide #741 chip, preliminary constant; antibody at week 0 (before incubation)
Procedure: as §1

[5] = target: T1, CD52 peptide #741; assay: BIACORE (SPR), CD52 peptide #741 chip, preliminary constant; antibody after 2 weeks at 45C, pH 7.2 in PBS
Procedure: as §1

[6] = target: T1, CD52 peptide #741; assay: BIACORE (SPR), CD52 peptide #741 chip, preliminary constant; antibody after 4 weeks at 45C, pH 7.2 in PBS
Procedure: as §1

[7] = target: T2, CD52 peptide mimotope (CGQNDTSQTSSPSAD); assay: BIACORE, CD52 peptide on CM5 chip; antibody from HEK293
T2 construct: Immobilized at a low level on a CM5 chip via thiol chemistry using the N-terminal Cys; also called CD52 peptide chip
T2 peptide: CGQNDTSQTSSPSAD
Procedure: (§2) Several concentrations of anti-CD52 antibody made in HBS-EP running buffer (1 to 20 nM) were injected over the surface to monitor the binding. Kinetic analysis was performed using Scrubber2 software.

[8] = target: T2, CD52 peptide mimotope (CGQNDTSQTSSPSAD); assay: BIACORE, CD52 peptide on CM5 chip; antibody from CHO; CHO-produced Ab26
Procedure: as §2

[9] = target: T2, CD52 peptide mimotope (CGQNDTSQTSSPSAD); assay: BIACORE (SPR), CD52 peptide, antibody purified from CHO cells; inset table
Procedure: as §2

[10] = target: T2, CD52 peptide mimotope (CGQNDTSQTSSPSAD); assay: BIACORE (SPR), CD52 peptide, purified antibody; concentrations used for fit 7.5nM - 0.2nM
[11] = target: T1, CD52 peptide #741; assay: BIACORE (SPR), CD52 peptide #741 chip, apparent KD; antibody after 2 weeks at 37C, 3 component buffer pH 7.5
Source text: (§3) Aliquots were taken at Week 2 and Week 4 (T2 and T4) to assess their affinity to CD52 peptide by BIACORE™.

[12] = target: T1, CD52 peptide #741; assay: BIACORE (SPR), CD52 peptide #741 chip, apparent KD; antibody after 4 weeks at 37C, 3 component buffer pH 7.5
Source text: as §3

[13] = target: T1, CD52 peptide #741; assay: BIACORE (SPR), CD52 peptide #741 chip, apparent KD; table 'after 37C incubation', T0, 3 component buffer pH 7.5
Source text: as §3

[14] = target: T1, CD52 peptide #741; assay: BIACORE (SPR), CD52 peptide #741 chip, apparent KD; antibody after 2 weeks at 45C, 3 component buffer (graph title: 45C pH7.4)
Source text: as §3

[15] = target: T2, CD52 peptide mimotope (CGQNDTSQTSSPSAD); assay: BIACORE (SPR), CD52 peptide, purified antibody; concentrations used for fit 240nM - 0.4nM
[16] = target: T2, CD52 peptide mimotope (CGQNDTSQTSSPSAD); assay: BIACORE (SPR), CD52 peptide, purified antibody; concentrations used for fit 240nM - 1.9nM
[17] = target: T2, CD52 peptide mimotope (CGQNDTSQTSSPSAD); assay: BIACORE (SPR), CD52 peptide, purified antibody; concentrations used for fit 240nM - 1.9nM; sheet's note to the asterisk: for more accurate KD, a higher concentration range should be used
[18] = target: T2, CD52 peptide mimotope (CGQNDTSQTSSPSAD); assay: BIACORE (SPR), CD52 peptide, purified antibody; concentrations used for fit 240nM - 0.4nM; sheet's note to the asterisk: for more accurate KD, a higher concentration range should be used
[19] = target: T2, CD52 peptide mimotope (CGQNDTSQTSSPSAD); assay: BIACORE, CD52 peptide on CM5 chip
Procedure: as §2

[20] = target: T2, CD52 peptide mimotope (CGQNDTSQTSSPSAD); assay: BIACORE, CD52 peptide on CM5 chip; antibody from CHO; CHO-produced Ab1; higher concentrations, up to 1900 nM
Procedure: as §2

[21] = target: T2, CD52 peptide mimotope (CGQNDTSQTSSPSAD); assay: BIACORE, CD52 peptide on CM5 chip; antibody from HEK293; HEK293-produced Ab1; higher concentrations, up to 1900 nM
Procedure: as §2

[22] = target: T2, CD52 peptide mimotope (CGQNDTSQTSSPSAD); assay: BIACORE (SPR), CD52 peptide, antibody purified from CHO cells; inset table, column ka; the sheet prints no unit, unit from Table 5 of the text
Procedure: as §2

[23] = target: T2, CD52 peptide mimotope (CGQNDTSQTSSPSAD); assay: BIACORE (SPR), CD52 peptide, antibody purified from CHO cells; inset table, column kd; the sheet prints no unit, unit from Table 5 of the text
Procedure: as §2

B1: Ab11 (antibody, human IgG1, kappa, V domains shown)
VH: EVQLVESGGGLVQPGGSLRLSCAASGFPFSNYWMNWVRQAPGKGLEWVGQIRLKSNNYATHYAESVKGRFTISRDDSKNSLYLQMNSLKTEDTAVYYCTPIDYWGQGTTVTVSS
VL: DIVMTQTPLSLSVTPGQPASISCKSSQSLLYSNDKTYLNWVLQKPGQSPQRLIYLVSKLDSGVPDRFSGSGSGTDFTLKISRVEAEDVGVYYCVQGSHFHTFGQGTKLEIKR
For B1, the “%T0 (affinity relative to T0)” value [1] was 100%, the “%T0 (affinity relative to T0)” value [2] was 24.9% and the “%T0 (affinity relative to T0)” value [3] was 46.5%. For the same binder, the Kd [4] was 4.12 nM, the Kd [5] was 16.5 nM and the Kd [6] was 8.85 nM.

B2: Ab26 (antibody, human IgG1, kappa, V domains shown)
VH: B1 VH
VL: B1 VL with D34G
notes: Humanized anti-human CD52 monoclonal antibody; made in HEK293 and in CHO cells; also called CTL; CTL1
For B2, the Kd [7] was 1.7 nM and 2.2 nM, the Kd [8] was 2.6 nM and the Kd [9] was 2.61 nM. The Kd [10] was 2.4 nM and 2.8 nM, the Kd [4] was 3 nM and the Kd [5] was 13.4 nM. The Kd [6] was 25.4 nM, the Kd [11] was 10 nM and 8.9 nM and the Kd [12] was 17.4 nM and 18.3 nM. For the same binder, the Kd [13] was 4.3 nM and 4.2 nM and the Kd [14] was 28 nM.

B3: Ab16 (antibody, human IgG1, kappa, V domains shown)
VH: B1 VH
VL: B1 VL with D34K
Binder B3 has a Kd [4] of 2.77 nM and a Kd [5] of 7.17 nM.

B4: Ab14 (antibody, human IgG1, kappa, V domains shown)
VH: B1 VH
VL: B1 VL with D34H
In the case of B4, the Kd [4] is reported as 3.5 nM, the Kd [5] is reported as 8.97 nM and the Kd [6] is reported as 33.3 nM.

B5: Ab20 (antibody, human IgG1, kappa, V domains shown)
VH: B1 VH
VL: B1 VL with D34Q
Work on B5 yielded a Kd [4] of 3.49 nM and a Kd [5] of 6.8 nM.

B6: Ab22 (antibody, human IgG1, kappa, V domains shown)
VH: B1 VH
VL: B1 VL with D34S
Binder B6 has a Kd [4] of 2.44 nM and a Kd [6] of 187 nM.

B7: Ab21 (antibody, human IgG1, kappa, V domains shown)
VH: B1 VH
VL: B1 VL with D34R
Binder B7 has a Kd [4] of 2.05 nM and a Kd [6] of 4.15 nM.

B8: Ab12 (antibody, human IgG1, kappa, V domains shown)
VH: B1 VH
VL: B1 VL with D34E
For B8, the Kd [15] was 39.8 nM, the koff [15] was 0.045 s⁻¹ and the kon [15] was 1.1e+06 M⁻¹ s⁻¹.

B9: Ab4 (antibody, human IgG1, kappa, V domains shown)
VH: B1 VH
VL: B1 VL with N33Q, D34G
notes: made in HEK293 cells
With B9 the koff [16] was 0.284 s⁻¹, the kon [16] was 1.3e+06 M⁻¹ s⁻¹ and the Kd [17] was 222 nM.

B10: Ab25 (antibody, human IgG1, kappa, V domains shown)
VH: B1 VH
VL: B1 VL with D34Y
B10 showed a koff [15] of 0.073 s⁻¹, a kon [15] of 700000 M⁻¹ s⁻¹ and a Kd [18] of 111 nM.

B11: Ab10 (antibody, human IgG1, kappa, V domains shown)
VH: B1 VH
VL: B1 VL with D34A
In the case of B11, the Kd [10] is reported as 5 nM, the Kd [4] is reported as 5.63 nM and the Kd [6] is reported as 144 nM.

B12: Ab1 (antibody, human IgG1, kappa, V domains shown)
VH: B1 VH
VL: B1 VL with N33D, D34G
notes: made in HEK293 and in CHO cells
B12 was tested, and the “fold reduction in affinity compared to Ab26” value [19] was over 400 fold, the Kd [9] was 1250 nM and the koff [16] was 0.421 s⁻¹. For the same binder, the kon [16] was 1.1e+06 M⁻¹ s⁻¹, the Kd [20] was 1250 nM and the koff [20] was 0.383 s⁻¹. It also gave a kon [20] of 300000 M⁻¹ s⁻¹, a Kd [21] of 1480 nM and a koff [21] of 0.58 s⁻¹. For the same binder, the kon [21] was 400000 M⁻¹ s⁻¹, the kon [22] was 306000 M⁻¹ s⁻¹ and the koff [23] was 0.383 s⁻¹. For the same binder, the Kd [17] was 366 nM.

B13: Ab3 (antibody, human IgG1, kappa, V domains shown)
VH: B1 VH
VL: B1 VL with N33K, D34G
notes: made in HEK293 cells
With B13 the Kd [15] was 65.8 nM, the koff [15] was 0.198 s⁻¹ and the kon [15] was 3.1e+06 M⁻¹ s⁻¹.

B14: Ab24 (antibody, human IgG1, kappa, V domains shown)
VH: B1 VH
VL: B1 VL with D34V
B14 was tested, and the “%T0 (affinity relative to T0)” value [1] was 100%, the “%T0 (affinity relative to T0)” value [2] was 30.5% and the “%T0 (affinity relative to T0)” value [3] was 29.8%. The Kd [10] was 5.6 nM, the koff [10] was 0.019 s⁻¹ and the kon [10] was 3.4e+06 M⁻¹ s⁻¹. The Kd [4] was 5.15 nM, the Kd [5] was 16.9 nM and the Kd [6] was 17.2 nM. For the same binder, the Kd [11] was 10.5 nM, the Kd [12] was 11.3 nM and the Kd [13] was 7 nM.
